# Source: patent publication US20250109204A1 (LAVA THERAPEUTICS N V, published 2025)
# B1: bispecific VHH 7D12var8-5C8var1-Y105F (bispecific antibody)
# chain: EVQLVESGGGSVQPGGSLRLSCAASGRTSRSYGMGWFRQAPGKEREFVSGISWRGDSTGYADSVKGRFTISRDNAKNTVDLQMNSLRAEDTAVYYCAAAAGSAWYGTLYEYDYWGQGTLVTVSSGGGGSEVQLLESGGGSVQPGGSLRLSCAASGRPFSNYAMSWFRQAPGKEREFVSAISWSGGSTSYADSVKGRFTISRDNSKNTLYLQMNSLRAEDTAVYYCAAQFSGADFGFGRLGIRGYEYDYWGQGTQVTVSS
# B2: 7D12var8-5C8var1 (Y105F)-Fc (bispecific antibody, V domains shown)
# V domain 1: EVQLVESGGGSVQPGGSLRLSCAASGRTSRSYGMGWFRQAPGKEREFVSGISWRGDSTGYADSVKGRFTISRDNAKNTVDLQMNSLRAEDTAVYYCAAAAGSAWYGTLYEYDYWGQGTLVTVSS
# V domain 2: EVQLLESGGGSVQPGGSLRLSCAASGRPFSNYAMSWFRQAPGKEREFVSAISWSGGSTSYADSVKGRFTISRDNSKNTLYLQMNSLRAEDTAVYYCAAQFSGADFGFGRLGIRGYEYDYWGQGTQVTVSS
# notes: Heterodimer of two VHH-Fc chains: 7D12var8-Fc (hole) and 5C8var1(Y105F)-Fc (knob); Human IgG1 Fc with L234F and L235E; In both entries the last residue X3 is K or absent; copies: 1 + 1
# B3: VHH 5C8var1 (VHH)
# VHH: EVQLLESGGGSVQPGGSLRLSCAASGRPFSNYAMSWFRQAPGKEREFVSAISWSGGSTSYADSVKGRFTISRDNSKNTLYLQMNSLRAEDTAVYYCAAQFSGADYGFGRLGIRGYEYDYWGQGTQVTVSS
# modifications: Y105 partly sulfated (shown for 5C8 and for 1D12var5-5C8var1; 5C8var1 gave two HP-SEC peaks)
# B4: VHH 5C8var1-Y105F (VHH)
# VHH: EVQLLESGGGSVQPGGSLRLSCAASGRPFSNYAMSWFRQAPGKEREFVSAISWSGGSTSYADSVKGRFTISRDNSKNTLYLQMNSLRAEDTAVYYCAAQFSGADFGFGRLGIRGYEYDYWGQGTQVTVSS
# B5: VHH 5C8var1-Y105S (VHH)
# VHH: EVQLLESGGGSVQPGGSLRLSCAASGRPFSNYAMSWFRQAPGKEREFVSAISWSGGSTSYADSVKGRFTISRDNSKNTLYLQMNSLRAEDTAVYYCAAQFSGADSGFGRLGIRGYEYDYWGQGTQVTVSS
# Columns and labels:
# [1] = target: Epidermal growth factor receptor (EGFR) on tumor cell lines A-431, HCT-116 and HT-29 (human) (UniProt P00533); test: cell-based or functional assay
# [2] = target: Human Vγ9Vδ2 T cell receptor on primary Vγ9Vδ2 T cells (human) (UniProt Q99603); test: cell-based or functional assay
# [3] = target: T1, Epidermal growth factor receptor (EGFR) on tumor cell lines A-431, HCT-116 and HT-29 (human, UniProt P00533 25-1210); test: cell-based or functional assay
# [4] = target: Human Vγ9Vδ2 T cell receptor on primary Vγ9Vδ2 T cells (human), Q99603; test: cell-based or functional assay
# [5] = target: T1, Epidermal growth factor receptor (EGFR) …; test: cell-based ELISA on A-431 cells, anti-IgG1-HRP, signal at 450 nm
# Protocol: (§1) To this end, tumor cells were first seeded at different concentrations on day-1 to reach a concentration of approximately 50000 cells/well on day 0. […] Bound antibodies were then labelled in a secondary incubation step with anti-IgG1-HRP for one hour at 37° C. The secondary antibody binding was then resolved by the addition of 3,3′,5,5′-Tetramethylbenzidine and the colorimetric change induced by the HRP, followed by the addition of H2SO4 to stop the reaction. The optical density (OD) was then measured in a UV spectrometer at a wavelength of 450 nm.
# [6] = target: Human Vγ9Vδ2 T cell receptor on primary Vγ9Vδ2 T cells (human) (UniProt Q99603); test: flow cytometry on expanded primary human Vγ9Vδ2 T cells (two donors), labelled anti-IgG1 secondary antibody
# [7] = target: T1, Epidermal growth factor receptor (EGFR) …; test: cell-based ELISA on HT29 cells, anti-IgG1-HRP, signal at 450 nm; EC50 table gives no unit, x axis is in nM
# Protocol: as §1
# [8] = target: T1, Epidermal growth factor receptor (EGFR) …; test: cell-based ELISA on HCT-116 cells, anti-IgG1-HRP, signal at 450 nm; EC50 table gives no unit, x axis is in nM
# Protocol: as §1
# [9] = target: T1, Epidermal growth factor receptor (EGFR) …; test: cell-based ELISA on EGFR-expressing A-431, HCT-116 and HT-29 cells, anti-IgG1-HRP, OD 450 nm; one EC50 given for all three cell lines A-431, HCT-116 and HT-29; 37° C
# Protocol: as §1
# [10] = target: Human Vγ9Vδ2 T cell receptor on primary Vγ9Vδ2 T cells (human) (UniProt Q99603); test: flow cytometry on expanded primary Vγ9Vδ2 T cells of donor D336 (panel 'Binding to D336 P3'), anti-IgG1 secondary, MFI (geometric mean); EC50 table beside the curve gives no unit, x axis is in nM
# [11] = target: Human Vγ9Vδ2 T cell receptor on primary Vγ9Vδ2 T cells (human) (UniProt Q99603); test: flow cytometry on expanded primary Vγ9Vδ2 T cells of donor D339 (panel 'Binding to D339 P2'), anti-IgG1 secondary, MFI (geometric mean); EC50 table beside the curve gives no unit, x axis is in nM
# [12] = target: T1, Epidermal growth factor receptor (EGFR) …; test: cell-based ELISA on A-431 cells, anti-IgG1-HRP, signal at 450 nm; EC50 table gives no unit, x axis is in nM; the table is identical to that of Fig. 10C and does not fit the drawn curve
# Protocol: as §1
# [13] = target: Recombinant human Vγ9Vδ2-Fc fusion protein (human) (UniProt Q99603); test: BLI (Octet RED96), Vγ9Vδ2-Fc captured on anti-human Fc biosensors, VHH as analyte, 1:1 global fit, mean of at least three measurements +/- SD
molecule,measurement,setting,value
bispecific VHH 7D12-5C8 (non-humanized) (bispecific antibody),EC50 cytotoxicity (pM),[1],9 pM
same,EC50 degranulation (pM),[2],10 pM
B1,EC50 cytotoxicity (pM),[3],2.5 pM
same,EC50 degranulation (pM),[4],11 pM
B2,EC50 for Vγ9Vδ2 T cell degranulation (CD107a),[2],0.04 to 0.09 nM
same,EC50 (read off the curve),[5],~1 nM
same,EC50,[6],3 nM
same,EC50,[7],6.45 nM
same,EC50,[8],7.29 nM
same,EC50,[9],~7 nM
same,EC50,[10],3.11 nM
same,EC50,[11],3.99 nM
same,EC50,[12],7.29 nM
B3,Kd,[13],0.81 nM
B4,Kd,[13],0.78 nM
B5,Kd,[13],1.59 nM
